In patent US20170021001A1:

Biological target: TCRs of Du51-specific CD8^+CD45RC^low Tregs (CD8^+CD40Ig Tregs) (rat)
Test: cell-based or functional assay

Row | Binder | CD25 expression at the cell surface of CD8^+CD40Ig Tregs, fold vs. no peptide (6 days coculture with matured syngeneic pDCs) (fold vs. no peptide) | CD25 upregulation on CD8^+CD40Ig Tregs, fold vs. no peptide (fold vs. no peptide)
1 | YLRYDSDVGEYRAVTE [peptide Bu31 (…)] | 1.67 | 
2 | NREEYARFDSDVGEYR [peptide Du51 (…)] | 2.07 | 
3 | REEYARFDSDVGEYR [peptide 51-18 (…)] |  | 2.04
